In assay [1] the target is SARS-COV-2 Omicron BA.1.1 spike on HIV-1 based pseudovirus (SARS-CoV-2 Omicron BA.1.1, UniProt P0DTC2 14-1273). The assay can be described thus: cell-based or functional assay.
Assay [2] concerns the target SARS-COV-2 Omicron BA.1 spike on HIV-1 based pseudovirus (Example 3) (SARS-CoV-2 Omicron BA.1, UniProt P0DTC2 14-1273). Description: cell-based or functional assay.
Assay [3] has as its target SARS-COV-2 Omicron BA.2 spike on HIV-1 based pseudovirus (SARS-CoV-2 Omicron BA.2, UniProt P0DTC2 14-1273). Description: cell-based or functional assay.
For assay [4], the target named is T1, SARS-COV-2 Omicron RBD recombinant protein (Sino Biological 40592-V08H121) (SARS-CoV-2 Omicron BA.1, UniProt P0DTC2 319-541).
Assay [5] concerns the target T1, SARS-COV-2 Omicron RBD recombinant …. The assay can be described thus: ELISA, SARS-CoV-2-Omicron BA.1 RBD coated, antibody titrated.
Assay [6] shares this target. This is another data set of the same source.
Assay [7] shares this target. This is another data set of the same source.
For assay [8] the target is unchanged. Description: BLI (Octet); by the text the format with mAb immobilised and soluble Omicron RBD.
Assay [9] shares this target. The source holds these as a separate data set.
Assay [10] shares this target. The source holds these as a separate data set.
The target is the same in assay [11]. This is another data set of the same source.
For assay [12], the target named is SARS-COV-2 Omicron (B.1.1.529) full length spike on HIV-1 based pseudovirus (Example 2) (SARS-CoV-2 Omicron, UniProt P0DTC2 14-1273). Description: cell-based or functional assay.

Where two headings read alike, the source gives them in different places. Where only a bound is given, the exact number is not on record here.

B1: CoV2-0213 (bispecific antibody, human IgG1, kappa)
heavy 1: not shown
light 1: DIQMTQSPSSLSASVGDRVTITCRASESVEYYGTSLMQWYQQKPGKAPKLLIYAASNVESGVPARFSGSGSGTDFTLTISSLQPEDFATYYCQQSRKVPWTFGQGTKVEIKRSSASTKGPSVFPLAPSSKSTSGGTAALGCLVKDYFPEPVTVSWNSGALTSGVHTFPAVLQSSGLYSLSSVVTVPSSSLGTQTYICNVNHKPSNTKVDKKVEPKSC
heavy 2: not shown
light 2: not shown
For B1, the “pseudovirus neutralization, IC50” value was 0.062 µg/mL in assay [1], 0.044 µg/mL in [2] and 0.078 µg/mL in [3]. Besides, in assay [3], the “pseudovirus neutralization, fold more effective than S309/Sotrovimab” value is around 78 fold.

B2: MB.08 (antibody, V domains shown)
VH: QVQLQESGPGLVKPSETLSLTCTVSGGSISSYYWSWIRQPPGKGLEWIGYIYYSGSTNYNPSLKSRVTISVDTSKNQFSLKLSSVTAADTAVYYCARGLTGGDAFDIWGQGTMVTVSS
VL: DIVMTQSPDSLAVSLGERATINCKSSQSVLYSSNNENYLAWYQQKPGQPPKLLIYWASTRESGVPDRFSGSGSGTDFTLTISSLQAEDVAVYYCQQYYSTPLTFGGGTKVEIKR
As usually defined, the koff is the first-order rate constant of dissociation. As a reminder, the kon is the rate constant with which the complex forms. A word on the EC50: it is the concentration needed to bring the measured effect to its halfway point. Usually EC50 (read off the curve) stands for the concentration giving half of the maximal effect. Usually Kd stands for the equilibrium constant for the complex coming apart. Take B2: the koff in assay [4] was 0.00536 s⁻¹; in [7] it was 0.00536 s⁻¹; in assay [10], below 1e-07 s⁻¹. Besides, the kon in assay [4] is 418000 M⁻¹ s⁻¹; in [7], 418000 M⁻¹ s⁻¹; in assay [10], 172000 M⁻¹ s⁻¹. For the same molecule, the results for the EC50 in assay [5] and in assay [11] were 0.0014 µg/mL and 0.0122 µg/mL, respectively. In addition, the “EC50 (read off the curve)” value in assay [6] is around 0.2 µg/mL. Besides, the Kd is 7.16 nM in assay [8] and below 0.001 nM in assay [9].

B3: Clone 2 (antibody, V domains shown)
VH: EVQLQQSGPELVKPGASVKISCKASGYSFTGYSMNWMKQSPEKSLEWIGEINPSTGGTTDNQKFKAKATLTVDKSSSTAYMQLKSLTSEDSAVYYCARSRGDYWGQGTSVTVSS
VL: DIVLTQSPASLAVSLGQRATISCRASESVEYYGTSLMQWYQQKPGQPPKVLIYAASNVESGVPARFSGSGSGTDFSLNIHPVEEDDIAMYFCQQSRKVPWTFGGGTKLEIKR
Consider B3, for which the “pseudovirus neutralization, IC50” value in assay [12] turned out to be 0.396 µg/mL.

Values taken from patent US20240228595A1 (YALE UNIVERSITY, published 2024).
